Data on one molecule can be found in paper PMC10711807.

In the experiment the target is TOLLIP, recombinant from bacteria, biotinylated (human), Q9H0E2. As to the kind of experiment: BLI. The settings on record: remark: other sources report otherwise.

B1: IRAK1, recombinant from bacteria, P51617 1-712 (enzyme)
chain: MAGGPGPGEPAAPGAQHFLYEVPPWVMCRFYKVMDALEPADWCQFAALIVRDQTELRLCERSGQRTASVLWPWINRNARVADLVHILTHLQLLRARDIITAWHPPAPLPSPGTTAPRPSSIPAPAEAEAWSPRKLPSSASTFLSPAFPGSQTHSGPELGLVPSPASLWPPPPSPAPSSTKPGPESSVSLLQGARPFPFCWPLCEISRGTHNFSEELKIGEGGFGCVYRAVMRNTVYAVKRLKENADLEWTAVKQSFLTEVEQLSRFRHPNIVDFAGYCAQNGFYCLVYGFLPNGSLEDRLHCQTQACPPLSWPQRLDILLGTARAIQFLHQDSPSLIHGDIKSSNVLLDERLTPKLGDFGLARFSRFAGSSPSQSSMVARTQTVRGTLAYLPEEYIKTGRLAVDTDTFSFGVVVLETLAGQRAVKTHGARTKYLKDLVEEEAEEAGVALRSTQSTLQAGLAADAWAAPIAMQIYKKHLDPRPGPCPPELGLGLGQLACCCLHRRAKRRPPMTQVYERLEKLQAVVAGVPGHSEAASCIPPSPQENSYVSSTGRAHSGAAPWQPLAAPSGASAQAAEQLQRGPNQPVESDESLGGLSAALRSWHLTPSCPLDPAPLREAGCPQGDTAGESSWGSGPGSRPTAVEGLALGSSASSSSEPPQIIINPARQKMVQKLALYEDGALDSLQLLSSSSLPGLGLEQDRQGPEESDEFQS
modifications: here or on the partner: biotin (biotinylated TOLLIP; site not told)
For orientation: Kd means the constant that tells how readily two partners part at equilibrium. For B1, the Kd was 91.5 nM.
